Source: the supplement of paper PMC10065799, “High-throughput profiling of sequence recognition by tyrosine kinases and SH2 domains using bacterial peptide display” (eLife, 2023)

Experiments:
EPHB1 = EPHB1 (UniProt P54762); assay: phosphorylation enrichment, bacterial display (enrichment ratio); higher = better substrate or ligand; peptides without Tyr show the background
Fes = Fes (UniProt P07332); assay: as above
c-Src = assay: as above
FGFR3 = FGFR3 (UniProt P22607); assay: as above
Fer (mouse) = assay: as above
Jak2 = Jak2 (UniProt O60674); assay: as above
Jak2, sequence (O60674 whole entry, looked up): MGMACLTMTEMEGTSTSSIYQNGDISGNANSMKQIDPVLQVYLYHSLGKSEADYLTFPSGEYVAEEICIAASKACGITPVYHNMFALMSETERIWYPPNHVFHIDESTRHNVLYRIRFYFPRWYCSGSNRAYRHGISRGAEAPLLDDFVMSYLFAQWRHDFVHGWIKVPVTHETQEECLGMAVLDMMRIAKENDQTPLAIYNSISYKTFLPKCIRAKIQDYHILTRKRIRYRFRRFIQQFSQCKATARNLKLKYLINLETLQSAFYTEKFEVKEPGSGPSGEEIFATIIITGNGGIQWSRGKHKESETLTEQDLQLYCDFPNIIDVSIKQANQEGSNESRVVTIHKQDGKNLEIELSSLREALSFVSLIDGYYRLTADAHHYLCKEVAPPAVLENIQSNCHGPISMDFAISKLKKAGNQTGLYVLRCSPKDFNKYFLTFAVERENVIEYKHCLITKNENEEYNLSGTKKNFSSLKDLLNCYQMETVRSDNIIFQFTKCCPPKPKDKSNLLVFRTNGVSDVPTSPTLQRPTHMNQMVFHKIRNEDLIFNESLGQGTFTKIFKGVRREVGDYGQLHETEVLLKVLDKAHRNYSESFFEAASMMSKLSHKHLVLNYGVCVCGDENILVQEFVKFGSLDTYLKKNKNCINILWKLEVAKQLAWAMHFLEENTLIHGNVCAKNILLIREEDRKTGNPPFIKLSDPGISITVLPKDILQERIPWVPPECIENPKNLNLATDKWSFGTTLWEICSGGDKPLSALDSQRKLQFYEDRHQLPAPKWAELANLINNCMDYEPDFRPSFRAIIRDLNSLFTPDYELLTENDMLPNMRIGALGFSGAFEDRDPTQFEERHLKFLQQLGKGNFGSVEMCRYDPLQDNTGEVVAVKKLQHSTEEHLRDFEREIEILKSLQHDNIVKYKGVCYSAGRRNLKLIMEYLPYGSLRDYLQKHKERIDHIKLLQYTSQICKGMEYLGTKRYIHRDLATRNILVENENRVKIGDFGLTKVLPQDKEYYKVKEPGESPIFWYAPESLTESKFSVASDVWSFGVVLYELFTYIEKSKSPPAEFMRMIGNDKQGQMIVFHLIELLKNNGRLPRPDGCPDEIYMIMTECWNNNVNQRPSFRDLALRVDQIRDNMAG

Fyn = Fyn (UniProt P06241); assay: as above
MERTK = MERTK (UniProt Q12866); assay: as above
FGFR1 = FGFR1 (UniProt P11362); assay: as above
FGFR1, sequence (P11362 whole entry, looked up): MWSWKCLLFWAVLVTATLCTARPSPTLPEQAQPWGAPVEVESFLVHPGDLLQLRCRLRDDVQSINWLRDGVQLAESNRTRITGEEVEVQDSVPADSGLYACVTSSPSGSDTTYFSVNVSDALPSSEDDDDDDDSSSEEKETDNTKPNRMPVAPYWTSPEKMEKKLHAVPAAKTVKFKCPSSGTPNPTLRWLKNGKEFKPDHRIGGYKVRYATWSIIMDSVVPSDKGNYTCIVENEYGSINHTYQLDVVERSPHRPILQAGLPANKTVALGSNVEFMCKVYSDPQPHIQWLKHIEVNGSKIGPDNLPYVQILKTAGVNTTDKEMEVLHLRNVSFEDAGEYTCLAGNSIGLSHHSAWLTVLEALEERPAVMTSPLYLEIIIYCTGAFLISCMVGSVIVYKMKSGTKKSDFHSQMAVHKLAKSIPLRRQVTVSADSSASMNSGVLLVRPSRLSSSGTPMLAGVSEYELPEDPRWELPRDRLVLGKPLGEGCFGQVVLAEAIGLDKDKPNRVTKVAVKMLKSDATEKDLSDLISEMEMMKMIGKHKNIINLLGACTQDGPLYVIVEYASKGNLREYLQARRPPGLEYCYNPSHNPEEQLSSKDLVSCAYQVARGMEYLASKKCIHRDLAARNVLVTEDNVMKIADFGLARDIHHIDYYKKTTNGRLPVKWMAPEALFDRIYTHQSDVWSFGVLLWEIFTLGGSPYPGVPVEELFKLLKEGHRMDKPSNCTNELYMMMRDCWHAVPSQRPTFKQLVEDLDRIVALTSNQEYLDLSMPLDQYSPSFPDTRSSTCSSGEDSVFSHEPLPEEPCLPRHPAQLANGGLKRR

c-Abl (mouse) = assay: as above
EPHB2 = EPHB2 (UniProt P29323); assay: as above
AncSZ = assay: as above
Hck = Hck (UniProt P08631); assay: as above
Hck, sequence (P08631 whole entry, looked up): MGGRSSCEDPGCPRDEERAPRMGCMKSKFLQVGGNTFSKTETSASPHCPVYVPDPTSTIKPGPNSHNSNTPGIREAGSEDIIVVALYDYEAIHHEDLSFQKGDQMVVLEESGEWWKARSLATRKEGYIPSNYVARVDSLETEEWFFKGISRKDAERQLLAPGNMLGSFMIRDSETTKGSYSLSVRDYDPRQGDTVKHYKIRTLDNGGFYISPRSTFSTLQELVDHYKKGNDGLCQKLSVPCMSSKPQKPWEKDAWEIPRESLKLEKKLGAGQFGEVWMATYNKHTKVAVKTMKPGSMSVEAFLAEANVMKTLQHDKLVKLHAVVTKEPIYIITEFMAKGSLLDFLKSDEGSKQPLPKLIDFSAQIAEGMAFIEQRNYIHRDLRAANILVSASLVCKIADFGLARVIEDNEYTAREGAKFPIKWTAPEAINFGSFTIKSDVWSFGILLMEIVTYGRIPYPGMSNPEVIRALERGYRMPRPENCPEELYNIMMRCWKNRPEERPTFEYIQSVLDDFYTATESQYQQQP

Grb2 SH2 = Grb2 SH2 (UniProt P62993); assay: SH2 binding enrichment of the phosphorylated peptide, bacterial display (enrichment ratio); higher = better substrate or ligand; peptides without Tyr show the background
c-Src SH2 = assay: as above
SHP2-C SH2 = assay: as above
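Wherever SH2 binding enrichment of the phosphorylated peptide, bacterial display is given: peptide library displayed on the E. coli surface as eCPX fusions, selected cells deep-sequenced, score is each peptide's frequency after selection divided by its frequency in the input.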
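Wherever phosphorylation enrichment, bacterial display is given: 11-residue human phosphosite peptides and single-mutation variants displayed on the E. coli surface, counted by deep sequencing, each peptide's frequency after selection divided by its frequency in the unselected input library; frequency after pTyr selection over input frequency; kinase dosed for 20-30% of maximal phosphorylation in three min.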

EPHB1, sequence (P54762 whole entry, looked up): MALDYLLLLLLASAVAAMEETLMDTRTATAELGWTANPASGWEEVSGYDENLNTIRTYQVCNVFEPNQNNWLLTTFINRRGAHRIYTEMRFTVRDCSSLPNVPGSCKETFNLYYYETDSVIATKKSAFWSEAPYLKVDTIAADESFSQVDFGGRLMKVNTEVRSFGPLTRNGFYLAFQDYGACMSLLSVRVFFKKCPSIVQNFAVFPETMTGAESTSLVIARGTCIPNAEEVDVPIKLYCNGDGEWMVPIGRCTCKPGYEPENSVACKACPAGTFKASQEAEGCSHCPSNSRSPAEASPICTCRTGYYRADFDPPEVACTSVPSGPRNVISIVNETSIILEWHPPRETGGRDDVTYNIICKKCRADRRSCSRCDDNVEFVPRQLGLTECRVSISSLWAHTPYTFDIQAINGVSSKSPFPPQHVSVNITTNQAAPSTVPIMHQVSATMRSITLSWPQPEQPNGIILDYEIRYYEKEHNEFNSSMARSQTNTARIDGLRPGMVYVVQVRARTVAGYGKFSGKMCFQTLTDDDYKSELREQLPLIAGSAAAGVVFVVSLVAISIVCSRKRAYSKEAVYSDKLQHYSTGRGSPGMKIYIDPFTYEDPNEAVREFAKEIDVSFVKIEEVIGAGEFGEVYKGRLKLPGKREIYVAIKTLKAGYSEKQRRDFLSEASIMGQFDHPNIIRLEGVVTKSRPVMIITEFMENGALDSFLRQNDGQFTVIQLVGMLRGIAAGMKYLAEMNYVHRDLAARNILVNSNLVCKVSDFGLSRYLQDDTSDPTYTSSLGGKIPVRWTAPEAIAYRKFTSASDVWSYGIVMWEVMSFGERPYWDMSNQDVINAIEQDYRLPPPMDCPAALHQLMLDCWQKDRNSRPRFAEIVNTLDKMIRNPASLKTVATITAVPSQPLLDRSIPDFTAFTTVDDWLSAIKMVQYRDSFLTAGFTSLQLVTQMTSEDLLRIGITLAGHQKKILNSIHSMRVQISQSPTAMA
Fes, sequence (P07332 whole entry, looked up): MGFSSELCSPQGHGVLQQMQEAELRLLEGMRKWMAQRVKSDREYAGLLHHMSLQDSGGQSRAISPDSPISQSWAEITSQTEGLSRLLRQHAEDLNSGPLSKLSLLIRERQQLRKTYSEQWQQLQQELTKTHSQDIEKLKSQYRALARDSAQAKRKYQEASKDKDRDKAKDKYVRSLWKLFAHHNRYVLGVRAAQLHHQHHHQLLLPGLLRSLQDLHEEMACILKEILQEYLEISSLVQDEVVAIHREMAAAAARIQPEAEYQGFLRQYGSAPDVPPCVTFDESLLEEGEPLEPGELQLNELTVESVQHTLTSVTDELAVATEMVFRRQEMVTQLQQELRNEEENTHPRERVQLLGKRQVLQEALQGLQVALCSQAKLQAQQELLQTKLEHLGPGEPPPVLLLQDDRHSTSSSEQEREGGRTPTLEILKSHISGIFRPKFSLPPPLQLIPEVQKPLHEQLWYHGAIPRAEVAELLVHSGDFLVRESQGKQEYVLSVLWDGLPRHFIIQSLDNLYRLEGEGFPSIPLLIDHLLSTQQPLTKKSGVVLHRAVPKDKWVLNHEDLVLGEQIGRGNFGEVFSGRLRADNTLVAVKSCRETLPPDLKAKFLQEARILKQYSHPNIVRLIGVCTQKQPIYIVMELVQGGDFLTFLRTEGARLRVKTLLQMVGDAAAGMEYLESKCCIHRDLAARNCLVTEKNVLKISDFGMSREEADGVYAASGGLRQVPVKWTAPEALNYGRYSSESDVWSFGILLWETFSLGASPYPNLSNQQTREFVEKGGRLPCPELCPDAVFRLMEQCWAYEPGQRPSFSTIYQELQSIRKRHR
FGFR3, sequence (P22607 whole entry, looked up): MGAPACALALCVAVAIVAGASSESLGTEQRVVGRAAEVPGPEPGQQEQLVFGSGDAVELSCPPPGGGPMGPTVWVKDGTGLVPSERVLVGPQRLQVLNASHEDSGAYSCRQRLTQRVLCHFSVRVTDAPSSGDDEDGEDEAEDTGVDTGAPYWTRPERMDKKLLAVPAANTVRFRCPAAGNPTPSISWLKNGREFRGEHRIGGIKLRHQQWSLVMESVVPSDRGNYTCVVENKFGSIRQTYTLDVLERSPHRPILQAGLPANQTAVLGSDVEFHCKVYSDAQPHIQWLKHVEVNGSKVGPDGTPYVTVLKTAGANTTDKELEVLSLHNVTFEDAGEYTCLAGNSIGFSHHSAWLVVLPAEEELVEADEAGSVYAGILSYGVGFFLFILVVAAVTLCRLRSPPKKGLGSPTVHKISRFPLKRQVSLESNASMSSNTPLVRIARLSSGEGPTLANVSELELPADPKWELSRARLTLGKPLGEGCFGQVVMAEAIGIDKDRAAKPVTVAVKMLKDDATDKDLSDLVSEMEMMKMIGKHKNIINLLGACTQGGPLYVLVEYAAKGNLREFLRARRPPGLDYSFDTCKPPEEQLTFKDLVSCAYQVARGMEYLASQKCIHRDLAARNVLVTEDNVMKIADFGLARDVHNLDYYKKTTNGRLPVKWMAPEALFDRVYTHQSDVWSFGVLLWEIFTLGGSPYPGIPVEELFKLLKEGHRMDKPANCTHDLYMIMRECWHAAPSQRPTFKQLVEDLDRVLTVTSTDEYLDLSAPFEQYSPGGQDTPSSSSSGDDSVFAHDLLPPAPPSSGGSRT

SH2 binding enrichment (Grb2 SH2)	SH2 binding enrichment (c-Src SH2)	SH2 binding enrichment (SHP2-C SH2)	Sequence	phosphorylation enrichment (EPHB1)	phosphorylation enrichment (Fes)	phosphorylation enrichment (c-Src)	phosphorylation enrichment (FGFR3)	phosphorylation enrichment (Fer (mouse))	phosphorylation enrichment (Jak2)	phosphorylation enrichment (Fyn)	phosphorylation enrichment (MERTK)	phosphorylation enrichment (FGFR1)	phosphorylation enrichment (c-Abl (mouse))	phosphorylation enrichment (EPHB2)	phosphorylation enrichment (AncSZ)	phosphorylation enrichment (Hck)
0.84	0.609	0.682	AQQPIYVRVEG [NLRP7_Y318]	5.88	0.963	3.6	0.787	0.707	0.965	2.18	2.46	1.12	1.54	4.96	0.967	1.74
0.763	0.369	0.755	ARGMEYLASQK [FGFR2_Y616]	0.376	0.657	0.398	0.433	0.37	0.563	0.534	0.394	0.443	0.669	0.461	0.576	0.385
1.25	0.845	1	ARMTNCGLPRY [TSPAN12_Y138_Y138C]	0.487	0.602	0.456	0.487	0.335	0.519	0.394	0.354	0.446	0.575	0.365	0.588	0.453
1	0.5	0.761	ARMTNYGLPRY [TSPAN12_Y138]	0.463	0.739	0.534	0.441	0.576	0.606	0.619	0.497	0.495	0.66	0.588	0.576	0.554
1.01	0.757	0.743	ARVDTYCRHNF [HLA-DRB1_Y107_A103R_YF]	0.41	0.992	0.496	0.53	0.433	0.731	0.439	0.486	0.443	0.677	0.494	0.7	0.45
1	0.613	0.793	ASFSLYEPAKM [MKI67_Y340_P338S]	6.24	1.28	1.25	0.563	9.33	0.954	1.27	0.769	0.518	0.825	5.28	1.27	3.48
0.695	0.697	1.02	ASNFNYFYHRE [KCNA1_Y413_V408A]	0.582	0.964	0.497	0.956	0.455	0.732	0.504	0.398	1.1	0.476	0.65	0.95	0.428
0.73	14.3	0.833	ASTHVYQIMNH [ITK_Y588]	0.991	0.722	2.58	0.423	1.34	0.55	1.39	1.61	0.508	0.623	0.487	0.703	2
0.765	0.482	0.657	ATVRPYRPYII [LRP5_Y1528_A1525V]	0.499	0.715	0.586	0.591	0.462	0.564	0.518	0.484	0.53	0.677	0.552	0.777	0.43
0.979	0.76	20.1	AVRYIYTIDGS [DCX_Y105_G100A]	0.65	1.2	3.18	0.709	0.439	0.972	3.86	0.629	0.579	0.727	0.552	0.948	1.41
1.01	0.542	0.686	CCKNRYDKDKP [THAP1_Y14_G9C]	0.29	0.5	0.345	0.419	0.345	0.429	0.33	0.486	0.465	0.381	0.28	0.455	0.384
0.866	0.578	0.793	CDIARYIVSQL [MAST2_Y461_P459A]	0.594	1.12	0.478	0.733	0.505	0.827	0.447	0.43	0.553	0.667	0.542	0.919	0.559
0.728	1.22	0.48	CDTKLYTSVPN [DNTTIP2_Y427_A430V]	1.11	1.12	0.849	0.797	1.27	0.842	0.655	1.5	0.62	0.755	0.77	0.96	1.01
0.676	0.402	0.553	CEAMEYLESKQ [BTK_Y511]	0.882	1.95	0.839	1.01	0.788	1.89	0.557	0.688	0.655	1.36	0.811	1.94	0.751
0.805	0.454	0.622	CEDMEYLESKQ [BTK_Y511_A508D]	0.652	1.35	0.53	0.734	0.652	1.22	0.494	0.497	0.476	0.828	0.783	1.3	0.643
1.47	0.883	1.14	CEHRGFLYLAI [TEK_Y897_Y897F]	0.464	1.16	0.564	0.698	0.545	0.801	0.372	0.442	0.419	0.947	0.466	0.971	0.453
2.18	1.49	1.74	CIILLYIFLKN [STXBP1_Y411_R406C]	0.441	0.693	0.37	0.531	0.406	0.553	0.378	0.363	0.392	0.492	0.275	0.676	0.465

SH2 binding enrichment (Grb2 SH2)	SH2 binding enrichment (c-Src SH2)	SH2 binding enrichment (SHP2-C SH2)	Sequence	phosphorylation enrichment (EPHB1)	phosphorylation enrichment (Fes)	phosphorylation enrichment (c-Src)	phosphorylation enrichment (FGFR3)	phosphorylation enrichment (Fer (mouse))	phosphorylation enrichment (Jak2)	phosphorylation enrichment (Fyn)	phosphorylation enrichment (MERTK)	phosphorylation enrichment (FGFR1)	phosphorylation enrichment (c-Abl (mouse))	phosphorylation enrichment (EPHB2)	phosphorylation enrichment (AncSZ)	phosphorylation enrichment (Hck)
5.58	0.735	1.24	CKQGKYLNWDA [ATM_Y54_S49C]	0.552	0.839	0.366	0.632	0.397	0.782	0.418	0.39	0.447	0.605	0.494	0.921	0.423
1.04	0.799	1.35	CLMILHRLKER [PTPRR_Y249_Y249H]	0.496	1.19	0.395	0.575	0.516	1.03	0.464	0.437	0.436	0.548	0.569	1.05	0.426
1.25	0.901	1.22	CLMILYRLKER [PTPRR_Y249]	0.444	1.23	0.388	0.809	0.501	0.997	0.5	0.364	0.509	0.576	0.603	1.26	0.494
1.28	1.24	0.984	CNNFIYGGCRG [SPINT2_Y163]	0.361	0.699	5.21	0.382	0.371	0.591	3.89	0.391	0.455	0.442	0.404	0.543	3.35
0.982	0.584	0.765	CPASVYTKRCS [CPT2_Y508_R503C]	0.349	0.549	0.431	0.441	0.354	0.518	0.434	0.447	0.447	0.442	0.403	0.598	0.392
0.978	0.712	0.855	CPSLPYSPVSS [CAMKK2_Y128]	0.491	0.847	0.787	0.7	3.14	0.905	0.545	0.527	0.588	0.654	0.607	0.813	0.497
0.87	0.651	0.593	CRERPYGGGGG [FUS_Y526_R521C]	0.552	1.13	0.377	0.468	0.647	0.587	0.389	0.438	0.556	0.459	0.406	0.631	0.481
1.78	1.65	1.25	CRPPYYHRNCM [HGD_Y334_F329C]	0.436	0.856	0.452	0.628	0.458	0.992	0.565	0.515	0.617	0.743	0.556	0.837	0.761
0.643	0.467	0.553	CSEETYRLMLQ [RET_Y981_M980T]	0.65	1.29	0.627	1.06	0.703	1.03	0.586	0.451	0.741	0.81	0.611	1.28	0.576
1.04	0.765	1.01	CSHKFYGKQCC [ADAMTS16_Y1211]	0.498	0.673	0.268	0.499	0.448	0.513	0.346	0.396	0.391	0.505	0.477	0.607	0.415
1.24	1.18	1.52	CSRCFYQLTKL [AR_Y858_R856C]	0.45	0.904	1.14	0.587	1.85	0.728	0.429	0.55	0.601	0.564	0.459	0.864	0.362
0.811	0.573	0.708	CTHDLYMIMRE [FGFR3_Y724]	2.05	1.46	2.22	0.837	0.667	1.44	0.564	1.18	0.634	0.848	1.03	1.31	0.971
1.76	2.11	1.76	CTIIHYNYMCN [TP53_Y234_T231I]	0.723	1	0.452	0.798	0.633	0.829	0.588	0.419	0.583	0.534	0.694	0.963	0.521
0.796	0.382	0.708	CTLNVYRQLHN [LUZP1_Y1036_S1034N]	0.753	1.28	0.473	0.749	0.516	1	0.459	0.475	0.558	0.739	0.585	1.05	0.551
0.987	0.914	1.27	CTTIHNNYMCN [TP53_Y234_Y234N]	0.44	0.725	0.385	0.452	0.383	0.61	0.432	0.379	0.423	0.63	0.456	0.712	0.423
0.775	0.508	0.823	CTTIHYNCMCN [TP53_Y234_Y236C]	0.591	1.08	0.468	0.715	0.541	0.885	0.45	0.426	0.417	0.689	0.712	1.06	0.475
